Experimental data published in patent US20260049138A1 (Chugai, published 2026).
Where a chain is given by its changes, count along the chain named. Numbers in names are those of the source.

B1: GLS3000 N53H one-arm antibody (antibody, human IgG1, kappa, L234A L235A, N297A, name in Kabat numbering)
heavy: QVQLVESGGGVVQPGRSLRLSCAASGFTFSNAWMHWVRQAPGKGLEWVAQIKAKSNNYATYYAESVKGRFTISRDDSKNSLYLQMNSLKTEDTAVYYCRYVHYGAYYGVDAWGQGTTVTVSSASTKGPSVFPLAPSSKSTSGGTAALGCLVKDYFPEPVTVSWNSGALTSGVHTFPAVLQSSGLYSLSSVVTVPSSSLGTQTYICNVNHKPSNTKVDKKVEPKSCDKTHTCPPCPAPEAAGGPSVFLFPPKPKDTLMISRTPEVTCVVVDVSHEDPEVKFNWYVDGVEVHNAKTKPREEQYASTYRVVSVLTVLHQDWLNGKEYKCKVSNKALPAPIEKTISKAKGQPREPQVYTLPPSRCELTKNQVSLSCAVKGFYPSDIAVEWESNGQPENNYKTTPPVLDSDGSFFLVSKLTVDKSRWQQGNVFSCSVMHEALHNHYTQKSLSLSPDYKDDDDK
chain: EPKSSDKTHTCPPCPAPELLGGPSVFLFPPKPKDTLMISRTPEVTCVVVDVSHEDPEVKFNWYVDGVEVHNAKTKPREEQYNSTYRVVSVLTVLHQDWLNGKEYKCKVSNKALPAPIEKTISKAKGQPREPQVCTLPPSRDELTKNQVSLWCLVKGFYPSDIAVEWESNGQPENNYKTTPPVLDSDGSFFLYSKLTVDKSRWQQGNVFSCSVMHEALHNRYTQKSLSLSP
light: DIVMTQSPLSLPVTPGEPASISCRSSQSLVHSNRNTYLHWYQQKPGQAPRLLIYKVSHRFSGVPDRFSGSGSGTDFTLKISRVEAEDVGVYYCGQGTQVPYTFGQGTKLEIKRTVAAPSVFIFPPSDEQLKSGTASVVCLLNNFYPREAKVQWKVDNALQSGNSQESVTEQDSKDSTYSLSSTLTLSKADYEKHKVYACEVTHQGLSSPVTKSFNRGEC
B2: GLS3000 P95E one-arm antibody (antibody, human IgG1, kappa, L234A L235A, N297A, name in Kabat numbering)
heavy: B1 heavy
chain: B1 chain
light: B1 light with H58N, P100E
B3: GLS3000 Q93D one-arm antibody (antibody, human IgG1, kappa, L234A L235A, N297A, name in Kabat numbering)
heavy: B1 heavy
chain: B1 chain
light: B1 light with H58N, Q98D
B4: GLS3000 Q27R one-arm antibody (antibody, human IgG1, kappa, L234A L235A, N297A, name in Kabat numbering)
heavy: B1 heavy
chain: B1 chain
light: B1 light with Q27R, H58N
B5: GLS3000 N53P one-arm antibody (antibody, human IgG1, kappa, L234A L235A, N297A, name in Kabat numbering)
heavy: B1 heavy
chain: B1 chain
light: B1 light with H58P
B6: GLS3000 N53S one-arm antibody (antibody, human IgG1, kappa, L234A L235A, N297A, name in Kabat numbering)
heavy: B1 heavy
chain: B1 chain
light: B1 light with H58S
B7: GLS3000 P95S one-arm antibody (antibody, human IgG1, kappa, L234A L235A, N297A, name in Kabat numbering)
heavy: B1 heavy
chain: B1 chain
light: B1 light with H58N, P100S
B8: GLS3000 N53I one-arm antibody (antibody, human IgG1, kappa, L234A L235A, N297A, name in Kabat numbering)
heavy: B1 heavy
chain: B1 chain
light: B1 light with H58I
B9: GLS3000 P95G one-arm antibody (antibody, human IgG1, kappa, L234A L235A, N297A, name in Kabat numbering)
heavy: B1 heavy
chain: B1 chain
light: B1 light with H58N, P100G
B10: GLS3000 Q27P one-arm antibody (antibody, human IgG1, kappa, L234A L235A, N297A, name in Kabat numbering)
heavy: B1 heavy
chain: B1 chain
light: B1 light with Q27P, H58N
B11: GLS3000 N53Q one-arm antibody (antibody, human IgG1, kappa, L234A L235A, N297A, name in Kabat numbering)
heavy: B1 heavy
chain: B1 chain
light: B1 light with H58Q
B12: GLS3000 N53V one-arm antibody (antibody, human IgG1, kappa, L234A L235A, N297A, name in Kabat numbering)
heavy: B1 heavy
chain: B1 chain
light: B1 light with H58V
B13: GLS3000 Q90A one-arm antibody (antibody, human IgG1, kappa, L234A L235A, N297A, name in Kabat numbering)
heavy: B1 heavy
chain: B1 chain
light: B1 light with H58N, Q95A
B14: GLS3000 N53L one-arm antibody (antibody, human IgG1, kappa, L234A L235A, N297A, name in Kabat numbering)
heavy: B1 heavy
chain: B1 chain
light: B1 light with H58L
B15: GLS3000 N53T one-arm antibody (antibody, human IgG1, kappa, L234A L235A, N297A, name in Kabat numbering)
heavy: B1 heavy
chain: B1 chain
light: B1 light with H58T
B16: GLS3000 P95L one-arm antibody (antibody, human IgG1, kappa, L234A L235A, N297A, name in Kabat numbering)
heavy: B1 heavy
chain: B1 chain
light: B1 light with H58N, P100L
B17: GLS3000 N53W one-arm antibody (antibody, human IgG1, kappa, L234A L235A, N297A, name in Kabat numbering)
heavy: B1 heavy
chain: B1 chain
light: B1 light with H58W
B18: GLS3000 Q93A one-arm antibody (antibody, human IgG1, kappa, L234A L235A, N297A, name in Kabat numbering)
heavy: B1 heavy
chain: B1 chain
light: B1 light with H58N, Q98A
B19: GLS3000 Q27E one-arm antibody (antibody, human IgG1, kappa, L234A L235A, N297A, name in Kabat numbering)
heavy: B1 heavy
chain: B1 chain
light: B1 light with Q27E, H58N
B20: GLS3000 N53K one-arm antibody (antibody, human IgG1, kappa, L234A L235A, N297A, name in Kabat numbering)
heavy: B1 heavy
chain: B1 chain
light: B1 light with H58K
B21: GLS3000 Q90P one-arm antibody (antibody, human IgG1, kappa, L234A L235A, N297A, name in Kabat numbering)
heavy: B1 heavy
chain: B1 chain
light: B1 light with H58N, Q95P
B22: GLS3000 N53Y one-arm antibody (antibody, human IgG1, kappa, L234A L235A, N297A, name in Kabat numbering)
heavy: B1 heavy
chain: B1 chain
light: B1 light with H58Y
B23: GLS3000 N53M one-arm antibody (antibody, human IgG1, kappa, L234A L235A, N297A, name in Kabat numbering)
heavy: B1 heavy
chain: B1 chain
light: B1 light with H58M
B24: GLS3000 Q90S one-arm antibody (antibody, human IgG1, kappa, L234A L235A, N297A, name in Kabat numbering)
heavy: B1 heavy
chain: B1 chain
light: B1 light with H58N, Q95S
B25: GLS3000 N53R one-arm antibody (antibody, human IgG1, kappa, L234A L235A, N297A, name in Kabat numbering)
heavy: B1 heavy
chain: B1 chain
light: B1 light with H58R
B26: GLS3000 Q93E one-arm antibody (antibody, human IgG1, kappa, L234A L235A, N297A, name in Kabat numbering)
heavy: B1 heavy
chain: B1 chain
light: B1 light with H58N, Q98E
B27: GLS3000 P95D one-arm antibody (antibody, human IgG1, kappa, L234A L235A, N297A, name in Kabat numbering)
heavy: B1 heavy
chain: B1 chain
light: B1 light with H58N, P100D
B28: GLS3000 P95A one-arm antibody (antibody, human IgG1, kappa, L234A L235A, N297A, name in Kabat numbering)
heavy: B1 heavy
chain: B1 chain
light: B1 light with H58N, P100A
B29: GLS3000 Q90E one-arm antibody (antibody, human IgG1, kappa, L234A L235A, N297A, name in Kabat numbering)
heavy: B1 heavy
chain: B1 chain
light: B1 light with H58N, Q95E
B30: GLS3000 Q27L one-arm antibody (antibody, human IgG1, kappa, L234A L235A, N297A, name in Kabat numbering)
heavy: B1 heavy
chain: B1 chain
light: B1 light with Q27L, H58N
B31: GLS3000 Q93P one-arm antibody (antibody, human IgG1, kappa, L234A L235A, N297A, name in Kabat numbering)
heavy: B1 heavy
chain: B1 chain
light: B1 light with H58N, Q98P
B32: GLS3000 Q27D one-arm antibody (antibody, human IgG1, kappa, L234A L235A, N297A, name in Kabat numbering)
heavy: B1 heavy
chain: B1 chain
light: B1 light with Q27D, H58N
B33: GLS3000 Q90D one-arm antibody (antibody, human IgG1, kappa, L234A L235A, N297A, name in Kabat numbering)
heavy: B1 heavy
chain: B1 chain
light: B1 light with H58N, Q95D
B34: GLS3000 Q90Y one-arm antibody (antibody, human IgG1, kappa, L234A L235A, N297A, name in Kabat numbering)
heavy: B1 heavy
chain: B1 chain
light: B1 light with H58N, Q95Y

Target: T1, CD3ε homodimer protein (human, UniProt P07766 23-126, limits assumed)
T1 construct: also called CD3 (CD3ε)
Test: SPR Biacore T200, CD3ε homodimer on chip;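 further: Light-chain single-residue variant antibodies injected over amine-coupled CD3ε homodimer on a CM4 chip at 25 °C, bound amount divided by that of the GLS3000-containing antibody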

T1 sequence (P07766 23-126 limits assumed): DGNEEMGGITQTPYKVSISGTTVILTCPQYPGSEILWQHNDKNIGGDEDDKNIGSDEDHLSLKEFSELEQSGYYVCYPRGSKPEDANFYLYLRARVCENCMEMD

| ratio of amount bound vs unaltered GLS3000 | Binder |
| --- | --- |
| 1.18 | B1 |
| 0.39 | B2 |
| 0.72 | B3 |
| 1.19 | B4 |
| 0.81 | B5 |
| 0.69 | B6 |
| 0.43 | B7 |
| 0.5 | B8 |
| 0.37 | B9 |
| 0.29 | B10 |
| 0.77 | B11 |
| 0.56 | B12 |
| 0.5 | B13 |
| 0.56 | B14 |
| 0.56 | B15 |
| 0.24 | B16 |
| 0.81 | B17 |

| ratio of amount bound vs unaltered GLS3000 | Binder |
| --- | --- |
| 0.85 | B18 |
| 0.88 | B19 |
| 1.08 | B20 |
| 0.27 | B21 |
| 0.67 | B22 |
| 0.62 | B23 |
| 0.73 | B24 |
| 1.58 | B25 |
| 0.75 | B26 |
| 0.24 | B27 |
| 0.63 | B28 |
| 0.86 | B29 |
| 0.92 | B30 |
| 0.25 | B31 |
| 0.85 | B32 |
| 0.19 | B33 |
| 0.17 | B34 |
